Measurements reported in patent US5739106A, “Appetite regulating compositions” (priority 1995, dated 1998).
pEC50, pIC50: −log10 of the molar value. Ends that are not written are not given here.

What was measured:
[1] = target: amylin receptors (membrane-bound amylin receptors)
[2] = target: amylin receptors (membrane-bound amylin receptors); test: receptor binding assay: competition with 125I Bolton Hunter rat amylin for membrane-bound amylin receptors
food intake in mice = test: food intake in food-deprived mice after intraperitoneal injection; assay type: in vivo
Protocol: Male NIH/Swiss Webster (Hsd:NIHS) mice, 8-10 weeks of age, were obtained from Harlan Sprague Dawley, Madison, Wis. Animals were exposed to 12:12 hour light-dark cycle, with lights off at 18:00, and with room temperature between 22° and 25° C. Water and food (Teklan 7002, Harlan Teklad, Madison, Wis.) were available ad libitum except as indicated below. Animals were adapted to the vivarium environment for at least one week before experiments were carried out.
Rat amylin (AC128) was synthesized by Fmoc solid phase synthesis. […] Peptides were dissolved in sterile water to obtain stock solutions of 1 mg/ml. Further dilutions were made with sterile saline just prior to intraperitoneal injections.
Animals were individually housed and deprived of food for 18-20 hours before experiments. Animals were allowed ad libitum access to water before and during the experiments. Immediately after intraperitoneal injection of rat amylin or CCK-8 or saline, all animals received a pre-weighed pellet of food. Food intake for each animal was measured by weighing the food pellet at 30 minutes following injection and providing food.

[3] = solubility and stability characteristics compared to human amylin; assay type: physicochemical
[4] = system: insulin-stimulated glycogen synthesis in soleus muscle; details: cited from earlier work
food intake in rats = details: IP, 0.5 μg/kg; cited from earlier work

Row | Molecule | Soleus Muscle (EC50, nM) [1] [nM] | pIC50 [2] | further results
1 | 1.7-Asn-eel Calcitonin (from UniProt P01262) (peptide) | 0.3 | 10.30 | 
2 | CSCC[C@H](NC(=O)[C@H](Cc1ccc(OS(=O)(=O)O)cc1)NC(=O)[C@@H](N)CC(=O)O)C(=O)NCC(=O)N[C@@H](Cc1c[nH]c2ccccc12)C(=O)N[C@@H](CCSC)C(=O)N[C@@H](CC(=O)O)C(=O)N[C@@H](Cc1ccccc1)C(N)=O [CCK-8, Asp-Tyr(SO3 H)-Met-Gly-Trp-Met-Asp-Phe-NH2] |  |  | effect on food intake (food intake in mice; IP injection of 1.0 μg/kg, peptide alone): no measurable effect; suppressed food intake (food intake in mice; mice, intraperitoneal, 1.0 μg/kg of each peptide, at 30 minutes): 10.6±16.9%
3 | CC[C@H](C)[C@H](NC(=O)[C@@H]1CCCN1C(=O)CNC(=O)[C@H](Cc1ccccc1)NC(=O)[C@H](CC(N)=O)NC(=O)[C@H](CC(N)=O)NC(=O)[C@H](CO)NC(=O)[C@H](CO)NC(=O)[C@H](Cc1c[nH]cn1)NC(=O)[C@@H](NC(=O)[C@H](CC(C)C)NC(=O)[C@H](Cc1ccccc1)NC(=O)[C@H](CC(N)=O)NC(=O)[C@H](C)NC(=O)[C@H](CC(C)C)NC(=O)[C@H](CCCNC(=N)N)NC(=O)[C@H](CCC(N)=O)NC(=O)[C@@H](NC(=O)[C@H](C)NC(=O)[C@@H]1CSSC[C@H](NC(=O)[C@@H](N)CCCCN)C(=O)N[C@@H](CC(N)=O)C(=O)N[C@@H]([C@@H](C)O)C(=O)N[C@@H](C)C(=O)N[C@@H]([C@@H](C)O)C(=O)N1)[C@@H](C)O)C(C)C)C(=O)N[C@@H](CC(C)C)C(=O)N1CCC[C@H]1C(=O)N1CCC[C@H]1C(=O)N[C@H](C(=O)N[C@@H](CC(N)=O)C(=O)N[C@H](C(=O)NCC(=O)N[C@@H](CO)C(=O)N[C@@H](CC(N)=O)C(=O)N[C@H](C(=O)N[C@@H](Cc1ccc(O)cc1)C(N)=O)[C@@H](C)O)C(C)C)[C@@H](C)O [^25,28,29 Pro-h-amylin] |  |  | solubility characteristics [3]: more desirable; stability characteristics [3]: more desirable
4 | Chicken calcitonin (from UniProt P07660) (ligand) | 0.7 | 10.52 | 
5 | Chicken calcitonin: ultimobranchial calcitonin closely related to fish calcitonins (CASLSTCVLGKLSQELHKLQTYPRTDVGAGTP; ends and bridges not checked; cysteine pairing not given here) |  |  | pEC50 [4]: 9.15
6 | Eel calcitonin (from UniProt P01262) (ligand) | 0.4 | 10.05 | 
7 | Eel calcitonin: calcitonin from fish (eel), ultimobranchial calcitonin (CSNLSTCVLGKLSQELHKLQTYPRTDVGAGTP; ends and bridges not checked; cysteine pairing not given here) |  |  | pEC50 [4]: 9.40
8 | Human amylin (from UniProt P10997) (ligand) | 1.6 | 10.30 | 
9 | Salmon calcitonin (from UniProt P01263) (ligand) | 0.4 | 10.15 | 
10 | Salmon calcitonin: calcitonin from fish (salmon), ultimobranchial calcitonin, amylin agonist |  |  | pEC50 [4]: 9.40
11 | amylin: amylin of unstated species in a literature report (KCNTATCATQRLANFLVHSSNNFGAILSSTNVGSNTY; Islet amyloid polypeptide; UniProt P10997 34-70, looked up) |  |  | effect on food intake (food intake in rats): significantly decreased food intake
